Measured values as given in the RNAGym collection of RNA variant scans (doi:10.1093/molbev/msab373).

B1: Azoarcus group I ribozyme (parent)
chain: GUGCCUUGCGCCGGGAAACCACGCAAGGGAUGGUGUCAAAUUCGGCGAAACCUAAGCGCCCGCCCGGGCGUAUGGCAACGCCGAGCCAAGCUUCGGCGCCUGCGCCGAUGAAGGUGUAGAGACUAGACGGCACCCACCUAAGGCAAACGCUAUGGUGAAGGCAUAGUCCAGGGAGUGGCGAAAGUCACACAAACCGG

Variants of: B1
Assay: reverse-splicing fitness (ratio to wild type); higher = more active; in vitro selection; Mg2+ level not given
Method in brief: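 An in vitro group I ribozyme library with randomized positions was T7-transcribed and gel-purified. In triplicate, 10 pmol RNA in EPPS pH 7.5 was reacted with 50 pmoles of a 30-nt RNA substrate for 1 h at 37 °C across several added MgCl2 levels (1–48 mM), then stopped with EDTA. Products were reverse transcribed from a substrate-complementary primer, PCR-amplified and sequenced (HiSeq 4000). Fitness is a variant's read proportion after selection over that before, normalised to wild type.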

**Q.** For C82U A111G A120U C150A C169A U176C, which reverse-splicing fitness is on record?
**A.** 0.00313

**Q.** Which reverse-splicing fitness does the source give for C82U A111G A120U C150A C169A U176G here?
**A.** 0.00269

**Q.** For C82U A111G A120U A145C C169G U176A, which reverse-splicing fitness is on record?
**A.** 0.00218

**Q.** For C82U A111G A120U A145C C169G U176G, which reverse-splicing fitness is on record?
**A.** 0.00126

**Q.** For C82U A111G A120U A145C C169G U176C, which reverse-splicing fitness is on record?
**A.** 0.0021

**Q.** With C82U A111G A120U A145U C150U C169A U176A as the variant, how does the reverse-splicing fitness read?
**A.** 0.00289

**Q.** With C82U A111G A120U A145U C150U C169A U176C as the variant, how does the reverse-splicing fitness read?
**A.** 0.0023

**Q.** For C82U A111G A120U A145U C150U C169A U176G, which reverse-splicing fitness is on record?
**A.** 0.00165

**Q.** Which reverse-splicing fitness does the source give for C82U A111G A120U A145G C150U C169A U176A here?
**A.** 0.00487

**Q.** Which reverse-splicing fitness does the source give for C82U A111G A120U A145G C150U C169A U176C here?
**A.** 0.00369

**Q.** Which reverse-splicing fitness does the source give for C82U A111G A120U A145G C150U C169A U176G here?
**A.** 0.00217

**Q.** With C82U A111G A120U A145G C150U U176A as the variant, how does the reverse-splicing fitness read?
**A.** 0.00999

**Q.** With C82U A111G A120U A145G C150U U176G as the variant, how does the reverse-splicing fitness read?
**A.** 0.00327

**Q.** With C82U A111G A120U A145G C150U U176C as the variant, how does the reverse-splicing fitness read?
**A.** 0.0134

**Q.** For C82U A111G A120U A145G C150A C169U, which reverse-splicing fitness is on record?
**A.** 0.00348

**Q.** For C82U A111G A120U A145G C150A C169G, which reverse-splicing fitness is on record?
**A.** 0.00549

**Q.** For C82U A111G A120U A145G C150A C169A, which reverse-splicing fitness is on record?
**A.** 0.00559

**Q.** For C82U A111G A120U C150G C169A, which reverse-splicing fitness is on record?
**A.** 0.00636

**Q.** Which reverse-splicing fitness does the source give for C82U A111G A120U C150G C169U here?
**A.** 0.004

**Q.** Which reverse-splicing fitness does the source give for C82U A111G A120U C150G C169G here?
**A.** 0.00572

**Q.** With C82U A111G A120U C150G C169G U176A as the variant, how does the reverse-splicing fitness read?
**A.** 0.00513

**Q.** Which reverse-splicing fitness does the source give for C82U A111G A120U C150G C169G U176C here?
**A.** 0.00318

**Q.** For C82U A111G A120U C150G C169G U176G, which reverse-splicing fitness is on record?
**A.** 0.0022

**Q.** Which reverse-splicing fitness does the source give for C82U A111G A120U A145G C150A here?
**A.** 0.01

**Q.** Which reverse-splicing fitness does the source give for C82U A111G A120U A145G C150G here?
**A.** 0.00906

**Q.** With C82U A111G A120U A145G C150U as the variant, how does the reverse-splicing fitness read?
**A.** 0.0339

**Q.** For C82U A111G A120U A145G C169A U176G, which reverse-splicing fitness is on record?
**A.** 0.00159

**Q.** With C82U A111G A120U A145G C169A U176A as the variant, how does the reverse-splicing fitness read?
**A.** 0.00258

**Q.** For C82U A111G A120U A145G C169A U176C, which reverse-splicing fitness is on record?
**A.** 0.00292

**Q.** With C82U A111G A120U C150G C169A U176A as the variant, how does the reverse-splicing fitness read?
**A.** 0.00509

**Q.** With C82U A111G A120U C150G C169A U176G as the variant, how does the reverse-splicing fitness read?
**A.** 0.00235

**Q.** With C82U A111G A120U C150G C169A U176C as the variant, how does the reverse-splicing fitness read?
**A.** 0.00364

**Q.** Which reverse-splicing fitness does the source give for C82U A111G A120U A145G here?
**A.** 0.0428

**Q.** For C82U A111G A120U A145U, which reverse-splicing fitness is on record?
**A.** 0.0429

**Q.** With C82U A111G A120U C150G C169U U176A as the variant, how does the reverse-splicing fitness read?
**A.** 0.00387

**Q.** With C82U A111G A120U A145G C169G U176A as the variant, how does the reverse-splicing fitness read?
**A.** 0.00278

**Q.** For C82U A111G A120U A145G C169G U176G, which reverse-splicing fitness is on record?
**A.** 0.00169

**Q.** With C82U A111G A120U A145G C169G U176C as the variant, how does the reverse-splicing fitness read?
**A.** 0.00294

**Q.** With C82U A111G A120U C150A C169U as the variant, how does the reverse-splicing fitness read?
**A.** 0.00325

**Q.** Which reverse-splicing fitness does the source give for C82U A111G A120U C150A C169G here?
**A.** 0.00358

**Q.** With C82U A111G A120U C150A C169A as the variant, how does the reverse-splicing fitness read?
**A.** 0.00324

**Q.** Which reverse-splicing fitness does the source give for C82U A111G A120U A145G C150U C169U U176G here?
**A.** 0.00238

**Q.** For C82U A111G A120U A145G C150U C169U U176C, which reverse-splicing fitness is on record?
**A.** 0.00348

**Q.** Which reverse-splicing fitness does the source give for C82U A111G A120U A145G C150U C169U U176A here?
**A.** 0.00391

**Q.** Which reverse-splicing fitness does the source give for C82U A111G A120U A145G U176A here?
**A.** 0.0106

**Q.** Which reverse-splicing fitness does the source give for C82U A111G A120U A145G U176G here?
**A.** 0.00369

**Q.** Which reverse-splicing fitness does the source give for C82U A111G A120U A145G U176C here?
**A.** 0.0172

**Q.** With C82U A111G A120U A145G C150U C169G U176A as the variant, how does the reverse-splicing fitness read?
**A.** 0.00913

**Q.** With C82U A111G A120U A145G C150U C169G U176C as the variant, how does the reverse-splicing fitness read?
**A.** 0.00432

**Q.** With C82U A111G A120U A145G C150U C169G U176G as the variant, how does the reverse-splicing fitness read?
**A.** 0.00189

**Q.** Which reverse-splicing fitness does the source give for C82U A111G A120U A145G C169G here?
**A.** 0.00348

**Q.** For C82U A111G A120U A145G C169U, which reverse-splicing fitness is on record?
**A.** 0.00406

**Q.** Which reverse-splicing fitness does the source give for C82U A111G A120U A145G C169A here?
**A.** 0.00248

**Q.** For C82U A111G A120U A145U C150G C169A U176A, which reverse-splicing fitness is on record?
**A.** 0.00259

**Q.** Which reverse-splicing fitness does the source give for C82U A111G A120U A145U C150G C169A U176G here?
**A.** 0.00207

**Q.** With C82U A111G A120U A145U C150G C169A U176C as the variant, how does the reverse-splicing fitness read?
**A.** 0.00216

**Q.** With C82U A111G A120U A145U U176C as the variant, how does the reverse-splicing fitness read?
**A.** 0.0196

**Q.** For C82U A111G A120U A145U U176A, which reverse-splicing fitness is on record?
**A.** 0.00945

**Q.** Which reverse-splicing fitness does the source give for C82U A111G A120U A145U U176G here?
**A.** 0.004

**Q.** Which reverse-splicing fitness does the source give for C82U A111G A120U A145U C150A U176C here?
**A.** 0.00416

**Q.** With C82U A111G A120U A145U C150A U176G as the variant, how does the reverse-splicing fitness read?
**A.** 0.00212

**Q.** With C82U A111G A120U A145U C150A U176A as the variant, how does the reverse-splicing fitness read?
**A.** 0.00427

**Q.** For C82U A111G A120U A145U C150G U176A, which reverse-splicing fitness is on record?
**A.** 0.00344

**Q.** For C82U A111G A120U A145U C150G U176C, which reverse-splicing fitness is on record?
**A.** 0.00492

**Q.** Which reverse-splicing fitness does the source give for C82U A111G A120U A145U C150G U176G here?
**A.** 0.00254

**Q.** With C82U A111G A120U C150A C169G U176A as the variant, how does the reverse-splicing fitness read?
**A.** 0.0073

**Q.** Which reverse-splicing fitness does the source give for C82U A111G A120U C150A C169G U176G here?
**A.** 0.00213

**Q.** For C82U A111G A120U C150A C169G U176C, which reverse-splicing fitness is on record?
**A.** 0.00439

**Q.** Which reverse-splicing fitness does the source give for C82U A111G A120U A145C C169U here?
**A.** 0.00379

**Q.** For C82U A111G A120U A145C C169G, which reverse-splicing fitness is on record?
**A.** 0.00247

**Q.** For C82U A111G A120U C150A, which reverse-splicing fitness is on record?
**A.** 0.00814

**Q.** Which reverse-splicing fitness does the source give for C82U A111G A120U C150G here?
**A.** 0.00763

**Q.** With C82U A111G A120U C150A U176C as the variant, how does the reverse-splicing fitness read?
**A.** 0.00592

**Q.** Which reverse-splicing fitness does the source give for C82U A111G A120U C150A U176A here?
**A.** 0.00587

**Q.** For C82U A111G A120U C150A U176G, which reverse-splicing fitness is on record?
**A.** 0.00238

**Q.** Which reverse-splicing fitness does the source give for C82U A111G A120U A145G C150A C169U U176C here?
**A.** 0.00341

**Q.** With C82U A111G A120U A145G C150A C169U U176G as the variant, how does the reverse-splicing fitness read?
**A.** 0.00215

**Q.** With C82U A111G A120U A145G C150A C169U U176A as the variant, how does the reverse-splicing fitness read?
**A.** 0.00427

**Q.** With C82U A111G A120U A145G C169U U176A as the variant, how does the reverse-splicing fitness read?
**A.** 0.00337

**Q.** With C82U A111G A120U A145G C169U U176G as the variant, how does the reverse-splicing fitness read?
**A.** 0.00171

**Q.** Which reverse-splicing fitness does the source give for C82U A111G A120U A145G C169U U176C here?
**A.** 0.00362

**Q.** For C82U A111G A120U A145G C150G C169A, which reverse-splicing fitness is on record?
**A.** 0.00768

**Q.** With C82U A111G A120U A145G C150G C169U as the variant, how does the reverse-splicing fitness read?
**A.** 0.00654

**Q.** Which reverse-splicing fitness does the source give for C82U A111G A120U A145G C150G C169G here?
**A.** 0.00671
